Experiments:
[1] = One-step conversion of CPC into 7-ACA (HPLC); type: biochemical; settings: 50 mM CPC, pH 8.5, 25° C., 1 hr, purified enzyme
Procedure: E. coli BL21(DE3) transformant containing each one of pET29-TnS5αβ and pET29-S12 plasmids of Example <3-2> was cultivated in 5 l of a LB broth containing 20 μg/ml of kanamycin and 2% lactose at 25° C., 200 rpm for 72 hr with vigorous shaking. Further, E. coli MC1061(pBCPC) containing the wild-type CPC acylase gene was also cultivated in 10 l of a LB broth containing 25 μg/ml of chloramphenicol at 25° C., 200 rpm for 48 hr with vigorous shaking. After then, the wild-type CPC acylase, TnS5αβ and S12 CPC acylase mutants were purified from each culture broth according to the same method as described in Example <2-1>, respectively. The purified protein obtained above was subjected to dialysis with 50 mM phosphate buffer solution (pH 8.5), and the diffusate obtained by dialysis was used for a CPC conversion reaction.
After CPC was dissolved in 50 mM phosphate buffer solution (pH 8.5) at a final concentration of 50 mM, the purified enzyme solution dissolved in the same buffer solution was added to the CPC solution obtained above at a final concentration of 5 unit/mg to prepare […] of the reaction mixture. The reaction mixture was stirred at 25° C. for 1 hr to induce a CPC conversion reaction. At this time, in order to prevent pH of the reaction mixture from decreasing during the conversion reaction, when pH of the reaction mixture was reached to 8.4, 0.2 N NaOH solution was automatically injected to the reaction mixture by a pH regulator to constantly maintain pH of the reaction mixture at 8.5. 100 μl of the reaction mixture was taken from at a fixed time during the conversion reaction and immediately subjected to a HPLC analysis to quantify the amount of CPC and 7-ACA in the reaction mixture. […] In addition, the flow rate of mobile phase was 0.6 ml/min, the sample (20 μl) to be injected was prepared by appropriately diluting the reaction mixture with 50 mM phosphate buffer solution (pH 8.5), and its absorbance was detected at UV 250 nm.

[2] = Specific activity of CPC acylase to CPC (PDAB colorimetric assay); type: biochemical; settings: purified enzyme
Procedure: Each E. coli transformant was inoculated into 3 ml of a LB medium (1% Bacto-Tryptone, 0.5% Yeast Extract, 0.5% NaCl) containing 25 μg/ml of chloramphenicol and cultured at 30° C., 200 rpm for 16 hr with vigorous shaking. 50 μl of the culture solution was transformed to 50 ml of a new LB medium containing […] of chloramphenicol and further cultured at 25° C., 200 rpm for 48 hr with vigorous shaking. The culture solution was subjected to centrifugation at 4° C., 8,000 rpm for 10 min to separate a precipitate and the precipitate washed twice with 0.1 M Tris-HCl buffer solution (pH 8.0). This precipitate was suspended in 5 ml of the same buffer solution and subjected to ultra-sonication at 4° C. for 10 min. […]
The enzyme activity of CPC acylase mutant to CPC was measured according to the method described by Park et al. with minor modifications as follows (Park, et al., Kor. J. Appl. Microbiol. Biotechnol. 23: 559-564, 1995). A substrate solution was prepared by dissolving CPC (purity 74.2%; CJ Corp., Korea) in 0.1 M Tris-HCl buffer solution (pH 8.0) at a concentration of 20 mg/ml and adjusting pH to 8 with 1 N NaOH. […] After the reaction, the mixture (200 μl) of 50 mM NaOH and 20% glacial acetic acid (1:2) was added thereto to stop the reaction. 200 μl of the supernatant recovered from the reaction mixture by centrifugation was mixed with 40 μl of 0.5% (w/v) PDAB (p-dimethylaminobenzaldehyde; Sigma, USA) dissolved in a methanol and the reaction mixture was incubated at 37° C. for 10 min. After the reaction, the absorbance of reaction mixture was measured at 415 nm and quantified by comparing with a calibration curve of standard material. At this time, 1 unit has been defined as the amount of enzyme capable to produce 1 μmole of 7-ACA from CPC per minute. Meanwhile, the specific activity of CPC acylase mutant for CPC was determined by measuring the amount of protein remaining in the enzyme solution according to the method described by Bradford (Bradford, M., Anal. Biochem. 72: 248-254, 1976) and representing it as an active unit corresponding to 1 mg of protein. The reactivity of CPC acylase mutant to CPC was determined by the following steps of adding the same amount of protein to a reaction mixture, performing an enzyme reaction for a fixed time, measuring the amount of 7-ACA produced in the reaction mixture, and representing it as a relative value. The end-product inhibition by 7-ACA was determined by adding a protein corresponding to the same active unit to a reaction mixture, performing an enzyme reaction for a fixed time; measuring the amount of 7-ACA produced in the reaction mixture, and representing it as a relative value.

B1: Wild-type: Pseudomonas sp. SE83 derived wild-type CPC acylase (AcyII), α-subunit SEQ ID NO: 4 and β-subunit SEQ ID NO: 5, from pBCPC (protein)
alpha: TMAAKTDREALQAALPPLSGSLSIPGLSAPVRVQRDGWGIPHIKASGEADAYRALGFVHAQDRLFQMELTRRKALGRAAEWLGAEAAEADILVRRLGMEKVCRRDFEALGAEAKDMLRAYVAGVNAFLASGAPLPIEYGLLGAEPEPWEPWHSIAVMRRLGLLMGSVWFKLWRMLALPVVGAANALKLRYDDGGQDLLCIPPGVEAERLEADLAALRPAVDALLKAMGG
beta: SNNWAVAPGRTATGRPILAGDPHRVFEIPGMYAQHHLACDRFDMIGLTVPGVPGFPHFAHNGKVAYCVTHAFMDIHDLYLEQFAEDGRTARFGNEFEPVAWRRDRIAVRGGADREFDIVETRHGPVIAGDPLEGAALTLRSVQFAETDLSFDCLTRMPGASTVAQLYDATRGWGLIDHNLVAGDVAGSIGHLVRARVPSRPRENGWLPVPGWSGEHEWRGWIPHEAMPRVIDPPGGLIVTANNRVVADDHPDYLCTDCHPPYRAERIMERLVASPAFAVDDAAAIHADTLSPHVGLLRARLEALGIQGSLPAEELRQTLIAWDGRMDAGSQAASAYNAFRRALTRLVTARSGLEQAIAHPFAAVPPGVSPQGQVWWAVPTLLRNDDAGMLKGWSWDEALSEALSVATQNLTGRGWGEEHRPRFTHPLSAQFPAWAALLNPVSRPIGGDGDTVLANGLVPSAGPEATYGALSRYVFDVGNWDNSRWVVFHGASGHPASPHYADQNAPWSDCAMVPMLYSWDRIAAEAVTSQELVPA
modifications: Pseudomonas sp. SE83
[1]
  CPC conversion rate: 60%
[2]
  specific activity to CPC as % of that to GL-7-ACA: about 1.4%
[2]; pH 8.0
  specific activity to CPC: about 0.33 unit/mg protein
[2]; relative to wild-type
  Relative activity to CPC (fold): 1.0 fold

B2: S12: sixfold CPC acylase mutant, α-subunit SEQ ID NO: 7 and β-subunit SEQ ID NO: 8 (protein)
alpha: TMAAKTDREALQAALPPLSGSLSIPGLSAPVRVQRDGWGIPHIKASGEADAYRALGFVHAQDRLFQMELTRRKALGRAAEWLGAEAAEADILVRRLGMEKVCRRDFEALGAEAKDMLRAYAAGVNAFLASGAPLPIEYSLLGAEPEPWEPWHSIAVMRRLGLLMGSVWFKLWRMLALPVVGAANALKLRYDDGGQDLLCIPPGVEAERLEADLAALRPAVDALLKAMGG
beta: SNNWAVAPGRTATGRPILAGDPHRVFEIPGMYAQHHLACDRFDMIGLTVPGVPGFPHNAHNGKVAYCVTHAFMDTHDLYLEQFAEDGRTARFGNEFEPVAWRRDRIAVRGGADREFDIVETRHGPVIAGDPLEGAALTLRSVQFAETDLSFDCLTRMPGASTVAQLYDATRGWGLVDHNLVAGDVAGSIGHLVRARVPSRPRENGWLPVPGWSGEHEWRGWIPHEAMPRVIDPPGGLIVTANNRVVADDHPDYLCTDCHPPYRAERIMERLVASPAFAVDDAAAIHADTLSPHVGLLRARLEALGIQGSLPAEELRQTLIAWDGRMDAGSQAASAYNAFRRALTRLVTARSGLEQAIAHPFAAVPPGVSPQGQVWWAVPTLLRNDDAGMLKGWSWDEALSEALSVATQNLTGRGWGEEHRPRFTHPLSAQFPAWAALLNPVSRPIGGDGDTVLANGLVPSAGPEATYGALCRYVFDVGNWDNSRWVVFHGASGHPASPHYADQNAPWSDCAMVPMLYSWDRIAAEAVTSQELVPA
modifications: alpha-subunit of mutatnt CPC acylase S12 protein; beta-subunit of mutatnt CPC acylase S12 protein
[1]
  7-ACA yield: ≥ 90%
  CPC conversion rate: 98%
[2]; pH 8.5
  specific activity to CPC, fold higher than that of the wild-type CPC acylase: 8.5 fold
[2]; pH of the reaction mixture 8.5
  specific activity to CPC: 5.8 unit/mg protein

Reference: US7592168B2, “Cephalosporin C acylase mutant and method for preparing 7-ACA using same” (Sandoz AG, priority 2003, dated 2009)
